Results on one protein are retold here after paper PMC6757426, “Stability and flexibility of full-length human oligodendrocytic QKI6” (BMC Research Notes, 2019).

As a reminder, the stoichiometry N is the number of molecules, sites or subunits per partner or assembly.

This series deals with the molecule itself. The series can be described thus: SEC-MALS; Superdex 200 pg increase 10/300GL, 20 mM Tris-HCl, 300 mM NaCl, 0.5 mM TCEP, pH 8.0; 200 ug QKI6 injected at 0.4 ml/min; no RNA. (In general: SEC sorts molecules by how far they enter the pores of the column.)

B1: Quaking isoform 6 (QKI6), full-length human (natural protein, UniProt Q96PU8-9 1-319, looked up)
chain: MVGEMETKEKPKPTPDYLMQLMNDKKLMSSLPNFCGIFNHLERLLDEEISRVRKDMYNDTLNGSTEKRSAELPDAVGPIVQLQEKLYVPVKEYPDFNFVGRILGPRGLTAKQLEAETGCKIMVRGKGSMRDKKKEEQNRGKPNWEHLNEDLHVLITVEDAQNRAEIKLKRAVEEVKKLLVPAAEGEDSLKKMQLMELAILNGTYRDANIKSPALAFSLAATAQAAPRIITGPAPVLPPAALRTPTPAGPTIMPLIRQIQTAVMPNGTPHPTAAIVPPGPEAGLIYTPYEYPYTLAPATSILEYPIEPSGVLGMAFPTKG
notes: Quaking isoform 6 (QKI6), human, UniProt Q96PU8-9, amino acids 1-319; calculated molecular weight of the construct 35,187.8 Da; also called full-length QKI6; human QKI6; source: E. coli BL21(DE3), purified (Ni-NTA, TEV digestion, second Ni-NTA, gel filtration on Superdex 200)
As to B1, the “stoichiometry N” value stood at 2.
